From patent publication US20220168396A1, “MULTI-RECEPTOR AGONIST AND MEDICAL USE THEREOF” (published 2022)
Read-outs that look alike come from different tables or passages of the source. Numbered stars: 1 amine (or outer) side, 2 acyl side, 3 side chain; on linkers, the order of the positions; unused ones are H or OH. Square brackets hold non-standard residues; d marks the D form. Side chains are listed from the residue outwards. Ends that are not written are not given here. γGlu = O=C(O)[C@H](CCC(=O)[*:2])N[*:1]; AEEA = NCCOCCOCC(=O)O; Aib = CC(C)(N)C(=O)O

How the values were obtained:
Test in all cases: cell-based or functional assay
[1] = target: T1, human glucagon-like peptide-1 receptor (human, UniProt P43220)
[2] = target: T2, human glucose-dependent insulinotropic peptide receptor (human, UniProt P48546)
T2 sequence: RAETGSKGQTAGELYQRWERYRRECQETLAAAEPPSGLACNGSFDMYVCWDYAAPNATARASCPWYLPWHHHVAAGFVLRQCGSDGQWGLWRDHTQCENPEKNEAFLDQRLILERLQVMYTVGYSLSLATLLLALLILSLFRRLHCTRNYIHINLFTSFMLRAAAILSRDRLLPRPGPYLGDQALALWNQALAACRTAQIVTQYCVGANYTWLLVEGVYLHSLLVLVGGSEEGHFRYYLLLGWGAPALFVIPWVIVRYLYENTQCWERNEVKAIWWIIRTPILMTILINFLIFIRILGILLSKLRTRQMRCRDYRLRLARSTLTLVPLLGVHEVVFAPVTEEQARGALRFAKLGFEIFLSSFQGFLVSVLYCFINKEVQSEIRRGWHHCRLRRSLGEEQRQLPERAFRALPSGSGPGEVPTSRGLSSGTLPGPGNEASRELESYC

[3] = target: T1, human glucagon-like peptide-1 receptor; remark: listed apart in the source
[4] = target: T2, human glucose-dependent insulinotropic …; remark: listed apart in the source

B1: Compound No. 71 (peptide)
peptide: Y[Aib]EGTFTSDYSIYLEEEAAKEFVNWLLAGGPSSGAPPPS-NH2
modifications: N-terminus assumed
SMILES: CC[C@H](C)[C@H](NC(=O)[C@H](CO)NC(=O)[C@H](Cc1ccc(O)cc1)NC(=O)[C@H](CC(=O)O)NC(=O)[C@H](CO)NC(=O)[C@@H](NC(=O)[C@H](Cc1ccccc1)NC(=O)[C@@H](NC(=O)CNC(=O)[C@H](CCC(=O)O)NC(=O)C(C)(C)NC(=O)[C@@H](N)Cc1ccc(O)cc1)[C@@H](C)O)[C@@H](C)O)C(=O)N[C@@H](Cc1ccc(O)cc1)C(=O)N[C@@H](CC(C)C)C(=O)N[C@@H](CCC(=O)O)C(=O)N[C@@H](CCC(=O)O)C(=O)N[C@@H](CCC(=O)O)C(=O)N[C@@H](C)C(=O)N[C@@H](C)C(=O)N[C@@H](CCCCN)C(=O)N[C@@H](CCC(=O)O)C(=O)N[C@@H](Cc1ccccc1)C(=O)N[C@H](C(=O)N[C@@H](CC(N)=O)C(=O)N[C@@H](Cc1c[nH]c2ccccc12)C(=O)N[C@@H](CC(C)C)C(=O)N[C@@H](CC(C)C)C(=O)N[C@@H](C)C(=O)NCC(=O)NCC(=O)N1CCC[C@H]1C(=O)N[C@@H](CO)C(=O)N[C@@H](CO)C(=O)NCC(=O)N[C@@H](C)C(=O)N1CCC[C@H]1C(=O)N1CCC[C@H]1C(=O)N1CCC[C@H]1C(=O)N[C@@H](CO)C(N)=O)C(C)C
Question: With B1 as the binder, how does the “Activity for human GLP-1R (EC50 nM), cAMP HTRF” value (from here on “Activity for human GLP-1R”) [1] read?
Answer: Its value is 0.017 nM.

Question: What about the “Activity for human GIPR (EC50 nM), cAMP HTRF” value (“Activity for human GIPR” below) [2] of the same binder?
Answer: Its value is 0.042 nM.

B2: Compound No. 78 (peptide)
peptide: Y[Aib]EGTFTSDYSIYLEKIAAQEFVQWLLAGGPSSGAPPPS-NH2
modifications: N-terminus assumed
SMILES: CC[C@H](C)[C@H](NC(=O)[C@H](CCCCN)NC(=O)[C@H](CCC(=O)O)NC(=O)[C@H](CC(C)C)NC(=O)[C@H](Cc1ccc(O)cc1)NC(=O)[C@@H](NC(=O)[C@H](CO)NC(=O)[C@H](Cc1ccc(O)cc1)NC(=O)[C@H](CC(=O)O)NC(=O)[C@H](CO)NC(=O)[C@@H](NC(=O)[C@H](Cc1ccccc1)NC(=O)[C@@H](NC(=O)CNC(=O)[C@H](CCC(=O)O)NC(=O)C(C)(C)NC(=O)[C@@H](N)Cc1ccc(O)cc1)[C@@H](C)O)[C@@H](C)O)[C@@H](C)CC)C(=O)N[C@@H](C)C(=O)N[C@@H](C)C(=O)N[C@@H](CCC(N)=O)C(=O)N[C@@H](CCC(=O)O)C(=O)N[C@@H](Cc1ccccc1)C(=O)N[C@H](C(=O)N[C@@H](CCC(N)=O)C(=O)N[C@@H](Cc1c[nH]c2ccccc12)C(=O)N[C@@H](CC(C)C)C(=O)N[C@@H](CC(C)C)C(=O)N[C@@H](C)C(=O)NCC(=O)NCC(=O)N1CCC[C@H]1C(=O)N[C@@H](CO)C(=O)N[C@@H](CO)C(=O)NCC(=O)N[C@@H](C)C(=O)N1CCC[C@H]1C(=O)N1CCC[C@H]1C(=O)N1CCC[C@H]1C(=O)N[C@@H](CO)C(N)=O)C(C)C
Question: Which “Activity for human GLP-1R” value [1] does the source give for B2 here?
Answer: The value was 0.008 nM.

Question: And the “Activity for human GIPR” value [2]?
Answer: The value was 0.012 nM.

B3: Compound No. 80 (peptide)
peptide: Y[Aib]EGTFTSDYSIYLEKIAAQEFVNWLIAGGPSSGAPPPS-NH2
modifications: N-terminus assumed
SMILES: CC[C@H](C)[C@H](NC(=O)[C@H](CCCCN)NC(=O)[C@H](CCC(=O)O)NC(=O)[C@H](CC(C)C)NC(=O)[C@H](Cc1ccc(O)cc1)NC(=O)[C@@H](NC(=O)[C@H](CO)NC(=O)[C@H](Cc1ccc(O)cc1)NC(=O)[C@H](CC(=O)O)NC(=O)[C@H](CO)NC(=O)[C@@H](NC(=O)[C@H](Cc1ccccc1)NC(=O)[C@@H](NC(=O)CNC(=O)[C@H](CCC(=O)O)NC(=O)C(C)(C)NC(=O)[C@@H](N)Cc1ccc(O)cc1)[C@@H](C)O)[C@@H](C)O)[C@@H](C)CC)C(=O)N[C@@H](C)C(=O)N[C@@H](C)C(=O)N[C@@H](CCC(N)=O)C(=O)N[C@@H](CCC(=O)O)C(=O)N[C@@H](Cc1ccccc1)C(=O)N[C@H](C(=O)N[C@@H](CC(N)=O)C(=O)N[C@@H](Cc1c[nH]c2ccccc12)C(=O)N[C@@H](CC(C)C)C(=O)N[C@H](C(=O)N[C@@H](C)C(=O)NCC(=O)NCC(=O)N1CCC[C@H]1C(=O)N[C@@H](CO)C(=O)N[C@@H](CO)C(=O)NCC(=O)N[C@@H](C)C(=O)N1CCC[C@H]1C(=O)N1CCC[C@H]1C(=O)N1CCC[C@H]1C(=O)N[C@@H](CO)C(N)=O)[C@@H](C)CC)C(C)C
Question: For B3, which “Activity for human GLP-1R” value [1] is on record?
Answer: The value was 0.008 nM.

Question: What about the “Activity for human GIPR” value [2] of the same binder?
Answer: Its value is 0.008 nM.

B4: Compound No. 83 (peptide)
peptide: Y[Aib]EGTFTSDYSIYLEKIAAQEFVNWLIAGGPSSGAPPPSK([AEEA-AEEA-γGlu-C20‑OH])-NH2
Question: How did the “Activity for human GLP-1R” value [3] turn out when B4 was run?
Answer: The value was 0.028 nM.

Question: What about the “Activity for human GIPR” value [4] of the same binder?
Answer: Its value is 0.032 nM.

B5: Compound No. 2 (peptide)
peptide: Y[Aib]EGTFTSDVSSYLEEEAAKEFIAWLVRGGPSSGAPPPSK-NH2
modifications: N-terminus assumed
SMILES: CC[C@H](C)[C@H](NC(=O)[C@H](Cc1ccccc1)NC(=O)[C@H](CCC(=O)O)NC(=O)[C@H](CCCCN)NC(=O)[C@H](C)NC(=O)[C@H](C)NC(=O)[C@H](CCC(=O)O)NC(=O)[C@H](CCC(=O)O)NC(=O)[C@H](CCC(=O)O)NC(=O)[C@H](CC(C)C)NC(=O)[C@H](Cc1ccc(O)cc1)NC(=O)[C@H](CO)NC(=O)[C@H](CO)NC(=O)[C@@H](NC(=O)[C@H](CC(=O)O)NC(=O)[C@H](CO)NC(=O)[C@@H](NC(=O)[C@H](Cc1ccccc1)NC(=O)[C@@H](NC(=O)CNC(=O)[C@H](CCC(=O)O)NC(=O)C(C)(C)NC(=O)[C@@H](N)Cc1ccc(O)cc1)[C@@H](C)O)[C@@H](C)O)C(C)C)C(=O)N[C@@H](C)C(=O)N[C@@H](Cc1c[nH]c2ccccc12)C(=O)N[C@@H](CC(C)C)C(=O)N[C@H](C(=O)N[C@@H](CCCNC(=N)N)C(=O)NCC(=O)NCC(=O)N1CCC[C@H]1C(=O)N[C@@H](CO)C(=O)N[C@@H](CO)C(=O)NCC(=O)N[C@@H](C)C(=O)N1CCC[C@H]1C(=O)N1CCC[C@H]1C(=O)N1CCC[C@H]1C(=O)N[C@@H](CO)C(=O)N[C@@H](CCCCN)C(N)=O)C(C)C
Question: For B5, which “Activity for human GLP-1R” value [1] is on record?
Answer: The value was 0.017 nM.

Question: What about the “Activity for human GIPR” value [2] of the same binder?
Answer: Its value is 3.5 nM.

B6: Compound No. 72 (peptide)
peptide: Y[Aib]EGTFTSDYSIYLEEIAAKEFVNWLLAGGPSSGAPPPS-NH2
modifications: N-terminus assumed
SMILES: CC[C@H](C)[C@H](NC(=O)[C@H](CCC(=O)O)NC(=O)[C@H](CCC(=O)O)NC(=O)[C@H](CC(C)C)NC(=O)[C@H](Cc1ccc(O)cc1)NC(=O)[C@@H](NC(=O)[C@H](CO)NC(=O)[C@H](Cc1ccc(O)cc1)NC(=O)[C@H](CC(=O)O)NC(=O)[C@H](CO)NC(=O)[C@@H](NC(=O)[C@H](Cc1ccccc1)NC(=O)[C@@H](NC(=O)CNC(=O)[C@H](CCC(=O)O)NC(=O)C(C)(C)NC(=O)[C@@H](N)Cc1ccc(O)cc1)[C@@H](C)O)[C@@H](C)O)[C@@H](C)CC)C(=O)N[C@@H](C)C(=O)N[C@@H](C)C(=O)N[C@@H](CCCCN)C(=O)N[C@@H](CCC(=O)O)C(=O)N[C@@H](Cc1ccccc1)C(=O)N[C@H](C(=O)N[C@@H](CC(N)=O)C(=O)N[C@@H](Cc1c[nH]c2ccccc12)C(=O)N[C@@H](CC(C)C)C(=O)N[C@@H](CC(C)C)C(=O)N[C@@H](C)C(=O)NCC(=O)NCC(=O)N1CCC[C@H]1C(=O)N[C@@H](CO)C(=O)N[C@@H](CO)C(=O)NCC(=O)N[C@@H](C)C(=O)N1CCC[C@H]1C(=O)N1CCC[C@H]1C(=O)N1CCC[C@H]1C(=O)N[C@@H](CO)C(N)=O)C(C)C
Question: What does the source list for B6?
Answer: Activity for human GLP-1R (EC50 nM), cAMP HTRF [1]: 0.017 nM; Activity for human GIPR (EC50 nM), cAMP HTRF [2]: 0.03 nM
